Experimental data: the DeepSol protein solubility set

assay: soluble on expression in E. coli; label from the status in PepcDB or PDB records

| Sequence | soluble on expression in E. coli |
| --- | --- |
| MQAQQLPYEFFSEENAPKWRGLLVPALKKVQGQVHPTLESNDDALQYVEELILQLLNMLCQAQPRSASDVEERVQKSFPHPIDKWAIADAQSAIEKRKRRNPLSLPVEKIHPLLKEVLGYKIDHQVSVYIVAVLEYISADILKLVGNYVRNIRHYEITKQDIKVAMCADKVLMDMFHQDVEDINILSLTDEEPSTSGEQTYYDLVKAFMAEIRQYIRELNLIIKVFREPFVSNSKLFSANDVENIFSRIVDIHELSVKLLGHIEDTVEMTDEGSPHPLVGSCFEDLAEELAFDPYESYARDILRPGFHDRFLSQLSKPGAALYLQSIGEGFKEAVQYVLPRLLLAPVYHCLHYFELLKQLEEKSEDQEDKECLKQAITALLNVQSGMEKICSKSLAKRRLSESACRFYSQQMKGKQLAIKKMNEIQKNIDGWEGKDIGQCCNEFIMEGTLTRVGAKHERHIFLFDGLMICCKSNHGQPRLPGASNAEYRLKEKFFMRKVQINDKDDTNEYKHAFEIILKDENSVIFSAKSAEEKNNWMAALISLQYRSTLERMLDVTMLQEEKEEQMRLPSADVYRFAEPDSEENIIFEENMQPKAGIPIIKAGTVIKLIERLTYHMYADPNFVRTFLTTYRSFCKPQELLSLIIERFEIPEPEPTEADRIAIENGDQPLSAELKRFRKEYIQPVQLRVLNVCRHWVEHHFYDFERDAYLLQRMEEFIGTVRGKAMKKWVESITKIIQRKKIARDNGPGHNITFQSSPPTVEWHISRPGHIETFDLLTLHPIEIARQLTLLESDLYRAVQPSELVGSVWTKEDKEINSPNLLKMIRHTTNLTLWFEKCIVETENLEERVAVVSRIIEILQVFQELNNFNGVLEVVSAMNSSPVYRLDHTFEQIPSRQKKILEEAHELSEDHYKKYLAKLRSINPPCVPFFGIYLTNILKTEEGNPEVLKRHGKELINFSKRRKVAEITGEIQQYQNQPYCLRVESDIKRFFENLNPMGNSMEKEFTDYLFNKSLEIEPRNPKPLPRFPKKYSYPLKSPGVRPSNPRPGT | soluble |
| MNRMMALVMAGGRGTRLAIDCEKPLLEVAGRPMIDHVLEALESATGVDGIIVVTSPHTPMTEDHVRGRHPIFRASGGGYVEDLREVLSHLEESYHEPLLVINSDLPLVRPSTIDWIISSYHSCPEPAMCVAVPDDLCRRHGLDFSGSLDGLVPCGVNILMSKNRVQEQRILEASMLELAVNINSCRDLKVLEKILGEIDGREEAHKRGREVLELEHHHHHH | soluble |
| MENELQDFPEPNYNVHAFYYVWYGSPQFDGKYVHWDHPLLPHWDPKVASSYSTGRHQPPEDIGANFYPALGPYSSRDPAVLEEHMRQLRMAAVGVLAVSWYPRSMKDDNGEEIDSLLPLILDAADKYQLKVLYNLYVFKNVICINKYV | not soluble |
| MGGKKFQAMPQLPSTVLDRVFEQARQQPEAIALRRCDGTSALRYRELVAEVGGLAADLRAQSVSRGSRVLVISDNGPETYLSVLACAKLGAIAVMADGNLPIAAIERFCQITDPAAALVAPGSKMASSAVPEALHSIPVIAVDIAAVTRESEHSLDAASLAGNADQGSEDPLAMIFTSGTTGEPKAVLLANRTFFAVPDILQKEGLNWVTWVVGETTYSPLPATHIGGLWWILTCLMHGGLCVTGGENTTSLLEILTTNAVATTCLVPTLLSKLVSELKSANATVPSLRLVGYGGSRAIAADVRFIEATGVRTAQVYGLSETGCTALCLPTDDGSIVKIEAGAVGRPYPGVDVYLAATDGIGPTAPGAGPSASFGTLWIKSPANMLGYWNNPERTAEVLIDGWVNTGDLLERREDGFFYIKGRSSEMIICGGVNIAPDEVDRIAEGVSGVREAACYEIPDEEFGALVGLAVVASAELDESAARALKHTIAARFRRESEPMARPSTIVIVTDIPRTQSGKVMRASLAAAATADKARVVVRG | soluble |
| MFEALKEVLGEINSKLAAVNNELSSKIMSENIVSTRPVAQAQYCGPYKLEKTLGKGQTGLVKTGTHCITGRKVAIKIVNKEKLSESVLQKVEREIAIMKLIEHPHVLHLYDVYENKKYLYLLLEHVSGGELFDYLVRKGRLMSKEARKFFRQIISALDFCHAHNICHRDLKPENLLLDERNNIKVADFGMASLQVEGSMLETSCGSPHYACPEVIRGEKYDGRKADVWSCGVILYALLVGALPFDDDNLRNLLEKVKRGVFHIPHFVPADVQSLLRAMIEVDPGKRYSLADVFKHPWVSGTTKADPELELPMSQVVQTHVIPGEDSIDPDVLRHMNCLGCFKDKQKLINELLSPKHNTEKMVYFLLLDRKRRRPAQEDDTEIVLRGAAQNNDPPKKRTDSSRTSRYPMGSIADGSPINPRKTYGRNQKSGRHSSLGGSPTESPRSSTRDLFGSSSSGSYSARAGEDRDRGRSASRSTNSYHYYTQPVDPQTLAEAARHVRDAQERRESRDSGRGSSRKESKDRSDKSASSSSCKNDASSTSSVPHKYSPPSVMSESVVVSSSTMNSTNSSTNSLIAGNSQTSIGSTSGPWRSKLNNIKNSFLGTPRFHRRKMSNGTAESDSEDSQMIDTTDLVKKSWFGSLASSMSVERDDTHCVPVQGKTLNSIKAELIRAFLQIHELSHSVVGQNCFRVEYKRGPTVGGSVFSRGIKMNVDIIPSPQQVVIAGETPTYVVQFVLLAGPVRRFKRLVEHLSAILQNSTQQRADRQQQAALMVRPRRLSDSSVGSACSDSESNASSINMIARHSDKTETTSATSSDPYGPSPSMRSVGSGTANSYKSPTPHRRNTTAVTASSSSASNRYGPSSSSSGSYSNNADYSYHPEYSQRSNGSSAPKNQYSPGSQRSFAFSMFNKADKV | not soluble |
| MAVPPTYADLGKSARDVFNKGYGFGLVKLEVKTKSSSGVEFTSSGSSNTDTGKASGNLETKYKMKETGLTFTQKWNTDNTLGTEVALEDKLAKGLKLSLDTTFVPNTGKKSAKLKTSYKRDYANLGIDIDLDLAGPTIYGWGVLGYQGWLAGYQMAFDTAKSRLAQNNFALGYTAGDFQLHTNVNDGTEFGGSVYQKVSKDVETSVSLAWSAGSNNTRFGIGAKYQLDSNTTISAKVNNASLIGVGYTQTLRPGVKLTLSALVNGKNFSAGGHKVGLGFELEA | not soluble |
| MGDTFIRHIALLGFEKRFVPSQHYVYMFLVKWQDLSEKVVYRRFTEIYEFHKTLKEMFPIEAGAINPENRIIPHLPAPKWFDGQRAAENRQGTLTEYCSTLMSLPTKISRCPHLLDFFKVRPDDLKLPTDNQTKKPETYLM | soluble |
| MSLTSDTKEKVEYSTDKYKVETNRFWDNWFISVGAGGQVYFGDHDKQIDFGDRIAPALDIAIGKWFTPGIGIRFMYSGLKSKGATRDDWECDITHGTGEHVPGWAGVPGDDLQYSKYKMSNLHADVLFNVLNLFGGYNENRKWDLSPYAGLGWARVYDSPSSKEVSANLGILTSWHFCDVLALNLDVRGMFVNDRFDGEGGGRFGEGNLSATIGLTYKFKQRSWDRSKTVYRYNYGDLESMRRKLNDMSAENDRLKKALADGDKQKAQTIVKKIASANLVTFKINRTKLSNEARANLGLLAEIIKSGDPETVYTITGYADAGTGSSKGNERLSKERAENVYDCLVKEFGVSEKQLRIDYKGGVDNMFYNDPRLSRAVITRGEEGHHHHHH | not soluble |
| MGSDKIHHHHHHMDGREIELKLALAPEDLARIAQRPCLSAGRLAEPTSKRLSSIYYDTSDHILASQGIAVRVRRTGSGFVQTVKTAGTSVSGLFDRDEWEVPLASPDLDAEQLRLTGLAAFADGELADLLTPVFSTEVDRVLIRLGGEGWEAEVALDRGALVVGDRREEISEVELELVSGTPAHLFRLATHIQAETAARPLCLSKSERGYSLAAGKTAPVVKAKAPILTPAMTVEESFRAIARACLEHLMLNERCLLATEAGEAIHQMRVAMRRMRSAIKVFKAVTEGPDLERIKDDLRWLLAHLGPARDADVFLSEIVDPVLAAHPGNAGLIALRAHWRKDRETKLAAAISAVKSKRYATMTLNLGRWVETGDWLTPSHGGARRRLAEPIATFAAGRVGKVVTRLLKEGGETLSRLSPEQRHAVRIRGKQVRYAGEFFASLVPRKSTKVYLSELAELQDVLGKLNDIAVAGPKLSGRGAGAGSSRAAGLIAGWHQSRRATLLNDADKCWKRWRALPLPWDEK | not soluble |
| MHLLRTQPGGFVPDDGIAHLAQTPAELVILCSGDSHLALLAEAARALPDDYPSLRLANPMQLQNHASVDLYVEEVLRHARVILLSLHGGIGYWRYGVEQLVALAERGALLIPVPGDDRPDPELSALGNLPAEQAERFWQYLRQGGLENAGQFYRCLASQCLGRDYAWREPQALPRVALFHPRHAEATLEHWRADWQAGRPVVALLFYRTHLQAANTAFIARFCERLAAQGLNPLPIALASLKESACLAQVEDWLERSDAALIVNTTGFAQSNPEAPELRPFRRDVPVLQAICSLDNRPLWLDNPQGLGPRDLAMHVALPELDGRIVTRPISFKGLAWRSERSESDVVCYLADDERMDFVAELARRWAELARKPNAEKRVALVLANYPTRDGRIGNGVGLDTPAAALNILRALRQQGYPVDGLPASGTELIRQLLGGVSNDLEHLDLRPCAQSLALDDYLACFARLPERNRQAVLARWGEPQQDPMFRDGRMMVAGLRYGLTFVGIQPARGYQLDPAAVYHDPDLVPPHGYLAFYFWLRHAYRADALLHVGKHGNLEWLPGKGVGLSAECWPDALLGPLPNIYPFIVNDPGEGAQAKRRTQAVIIDHLMPPLTRAESYGPLRDLERLADEFYDASLLDPRRAEQLRGEILVLLRDNRLDREIGLQLSDDPDSWLPQLDAYLCDLKESQIRDGLHVFGESPSGRLRLDTLLALLRVPRGDGKGANAGLLKSLADDLGLGFDPLACDMGEAWQGARPACLEERGGEPWRTLGDTRERLELLALHWIERCLGGESPPATWRASGEVLRGLCEQVAPTLDACGGAEIDGLLAALEGRFVPAGPSGAPSRGRLDVLPTGRNFFSVDVRNLPTPTAWRIGFQSANLLLERHLQEHGDHLRQLGLSVWGTATMRTGGDDIAQALALLGVRPVWQAGSQRVADFEILPVSLLDRPRVDVTLRVSGFFRDAFANLIRLFDAAVQAVAELDEAEELNPLAARVRLERQRLEAQGTAPAEARRQAGWRIFGAKPGAYGAGVQGAIEERLWETRADLAEVYLNWGGYAYGAADDGTPARERFAQRLERLQAVLHNQDNREHDLLDSNDYYQFQGGMLAAVETLRGAPVASYHGDHSQPDNPRIRTLKEELNRVVRARAVNPKWIAGMKRHGYKGAFELAATVDYLCAFDATSELIDDHQYALLADAYLLDAETREFVRQHNPQALRDMAERLVEAQRRGLWQEPGAYREALENL | not soluble |
| MGSDKIHHHHHHMKTIMYLHAGAEMYGSDKVLLQLVTGLDKKQFKPIVVLPEHGPLEKALETNDIQTEVVAYPILRRKYFNPKGIFNYASGYFKAEKVLANLAIKYHVDLIHVNTLAVLEGITLKKRIKKPLIWHVHEILLSPKFMWKLTAYLSAKYADKIVVVSNATGEHLKKAGYAKENQIVTIYNGINIPKGLENSDFRQEFDIPKNAFVFGHVGRINAWKGQEDFLKASLKLMSNYSKVHVLFSGNAYKGEEWREEKLKKEINESGFSDRIHYLGFQHEIRKVFNTMNVFVSSSIRPDPFPMVTLEAMANSKPIVSYDHGGPSELIVNAKTGYLVQPHNIDDLSLKMSMLINPKLESKFGVVGRKRVLSEFSETKFLQNFSFLYGDM | not soluble |
| MGSDKIHHHHHHMTHEFVTILHTNDLHSHVEHWPRIANWIKTRRAQLQAAGHFVLTFDVGDFIDRYDANTQATWGKANVELLNDCTFDGVTIGNNEGLGLPRDRMEDIYSERRFAVLLANIFENDHGLPKWAEEYRVFVTPKGTRISAFGLTAAYDLTYPLLDWLPAQPVETLEKLSDRVIAQSDIRILLSHLGLPTDQSLARRFKEISVILGAHTHHLLPKGQMVENTLLAAAGKYGENVGEVDLEIDEKHQVVSERAHTIKFDNLPEVESASAFLENWRESGRNILENQIISNLPTDRSTLQQIDDCADALMEKFQTKIAMISSGMFLDELPAGQLNAFQLLKDLPHTIHPMKIDILGSDLLKLFDEINLQHDHLLNQHINGSGFRGDKFGEIKFYGLHEKQVDPKQHYEIASLDHYYFLPWFHSLQSADVSFDFKNILRELTAGYYREKYSHQEAV | not soluble |
